Earlier results on 1 substance are cited in paper PMC8070256, “Feasibility of Developing Radiotracers for MDM2: Synthesis and Preliminary Evaluation of an ^18F-Labeled Analogue of the MDM2 Inhibitor SP-141” (Pharmaceuticals, 2021).

pKi: −log10 of the molar value.

The target of the series is MDM2 (Homo sapiens) (UniProt Q00987).
Chain of MDM2 (Homo sapiens) (Q00987 whole entry): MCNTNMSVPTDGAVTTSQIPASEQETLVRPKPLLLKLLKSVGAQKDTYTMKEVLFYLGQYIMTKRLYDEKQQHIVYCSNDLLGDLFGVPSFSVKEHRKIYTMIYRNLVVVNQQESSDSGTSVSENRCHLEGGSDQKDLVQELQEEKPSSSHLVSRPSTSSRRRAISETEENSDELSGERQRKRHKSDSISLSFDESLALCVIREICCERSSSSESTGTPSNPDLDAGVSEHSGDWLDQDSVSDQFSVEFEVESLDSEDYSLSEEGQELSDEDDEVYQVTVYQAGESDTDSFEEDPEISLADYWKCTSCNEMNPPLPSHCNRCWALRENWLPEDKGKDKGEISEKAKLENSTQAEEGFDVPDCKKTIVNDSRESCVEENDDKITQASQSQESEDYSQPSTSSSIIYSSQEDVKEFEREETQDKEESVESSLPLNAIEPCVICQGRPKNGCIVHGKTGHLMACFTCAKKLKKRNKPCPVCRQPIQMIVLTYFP

In the case of p53 peptide (from UniProt P04637), the pKi (as a rule, the Ki on a negative log10 scale, so that one unit is a factor of ten) was 5.96.
